Experimental data taken from patent US9115359B2, “Methods for producing secondary metabolites” (NewSouth Innovations Pty Limited, priority 2007, dated 2015).

Legend:
[1] = target: Bacillus brevis ATCC8185 NRPS peptidyl carrier protein involved in tyrocidine biosynthesis (TycPCP) (Bacillus brevis ATCC8185)
[2] = target: truncated SACP, SACP3 (Synechocystis sp. PCC6803) (UniProt P20804)
[3] = substrate: CC(C)(COP(=O)(O)OP(=O)(O)OC[C@H]1O[C@@H](n2cnc3c(N)ncnc32)[C@H](O)[C@@H]1OP(=O)(O)O)[C@@H](O)C(=O)NCCC(=O)NCCS; experiment: Phosphopantetheinylation assay with HPLC analysis: kinetics of Sppt with respect to CoA, carrier protein SACP3 (truncated SACP); type: biochemical, Synechocystis sp. PCC6803; conditions: other: Michaelis-Menten fit, 37° C.
Text: Sppt and SACP were expressed and purified to determine the activity of Sppt via phosphopantetheinylation assays. Sppt was amplified by the primer pair SynPpF (5′-TGTTTAAACTCACCTG-3′) (SEQ ID NO: 9) and SynPpR (5′-CCCAAGGTTACGAAAC-3′) (SEQ ID NO: 10). The resulting PCR product was cloned into pGEM-T (Promega), digested with the restriction enzymes SacI and EcoRV and ligated into pET30 (Novagen, San Diego, Calif.). The Synechocystis sp. PCC6803 fatty acid synthesis (FAS) ACP, designated SACP (AcpP BA000022), was amplified by the primer pair ssl2084Efw (5′-[…]-3′) (SEQ ID NO: 11) and ssl12084 Hry (5′-[…]-3′) (SEQ ID NO: 12), digested with the restriction enzymes EcoRI and HindIII, and cloned into pET30. A truncated SACP, SACP3, was cloned and expressed for HPLC kinetic analysis using the primers 2084NdeF (5′-[…]-3′) (SEQ ID NO: 13) and 2083XhoR (5′-[…]-3′) (SEQ ID NO: 14).
The constructs were transformed into BL21(DE3) Rosetta (Novagen) for expression. Sppt was expressed at 37° C., with an induction concentration of 1 mM isopropyl-beta-D-thiogalactopyranoside (IPTG), for 3 hours. SACP and SACP3 were expressed at 37° C. with 1 mM IPTG for 20-40 min. Cultures were harvested at 5,000×g and cell pellets were stored at −80° C. Cell pellets were resuspended in Hepes buffer (Hepes 50 mM, NaCl 150 mM pH 7.4) and passaged three times through a cooled French pressure cell at […] (Paton Scientific, Victor Harbor, South Australia). […]
The protein concentrations were determined based on the calculated extinction coefficients: SACP 6,970 cm^−1M^−1, Sppt 53,110 cm^−1M^−1. […]
Sppt activity towards SACP was determined in a 10 min phosphopantetheinylation assay at 37° C. as previously described in Copp J. N., Roberts A. A., Marahiel M. A., Neilan B. A., 2007, Characterization of PPTNs, a cyanobacterial phosphopantetheinyl transferase from Nodularia spumigena NSOR10. […]
The CoA inhibition and pH activity range for Sppt was determined using in vitro phosphopantetheinylation assays with the truncated SACP3. […]

NpACP = experiment: Sppt in vitro phosphopantetheinylation of non-cognate carrier proteins, ESI-MS; type: biochemical, N. punctiforme ATCC29133; conditions: 30 min reaction
Description: (§1) Sppt activity towards SACP was determined in a 10 min phosphopantetheinylation assay at 37° C. as previously described in Copp J. N., Roberts A. A., Marahiel M. A., Neilan B. A., 2007, Characterization of PPTNs, a cyanobacterial phosphopantetheinyl transferase from Nodularia spumigena NSOR10. J Bacteria 189(8):3133-9. Briefly, the 100-200 μl reactions comprised of 50 mM Tris-HCl pH 7.4, 12.5 mM MgCl2, 0.5 mM CoA, 2 μM DTT, 100 μM carrier protein and 300 nM Sppt. Reactions were incubated for 10 min at 37° C., terminated by the addition of 1 ml trichloroacetic acid and precipitated overnight at −20° C. before centrifugation for 15 min at 18,000×g. Samples were dissolved in water:acetonitrile:formic acid (50:49:1). Phosphopantetheinylation was observed by an increase in mass of 340 Da as visualised by electrospray ionisation mass spectrometry (ESI-MS). […]
(§2) The ability of Sppt to activate carrier proteins from a range of secondary metabolism pathways was tested, including those from unicellular and filamentous, heterocyst-forming cyanobacteria. […] Protein concentrations were determined based on the calculated extinction coefficients: NpArCP 8,250 cm^−1M^−1, NpACP 13,940 cm^−1M^−1, MPCP 6,970 cm^−1M^−1 and TycPCP 9,530 cm^−1M^−1. Phosphopantetheinylation assays were carried out in 30 min reactions and analysed by ESI-mass spectrometry described in Example 4 above.

NpArCP = experiment: as above; type: biochemical, N. punctiforme ATCC29133; conditions: 30 min reaction
Description: as §1, §2

MPCP = experiment: as above; type: biochemical, M. aeruginosa PCC7806; conditions: 30 min reaction
Description: as §1, §2

TycPCP = experiment: as above; type: biochemical, Bacillus brevis ATCC8185; conditions: 30 min reaction; estimated from holo- and apo-CP abundance in mass spectra
Description: as §1, §2

Molecule: Synechocystis sp. PCC6803 phosphopantetheinyl transferase (Sppt) (from UniProt Q55185) (enzyme)
- phosphopantetheinylation of the carrier protein (30 min assay, ESI-MS; % holo-CP) [1]: 54%
- kcat of phosphopantetheinylation of SACP3 (HPLC assay, CoA varied) (min^-1 (printed min^d)) [2]: 28.4

B1: Synechocystis sp. PCC6803 phosphopantetheinyl transferase Sppt (slr0495, Swissprot accession number Q55185) (Synechocystis sp. PCC 6803 substr. Kazusa) (protein)
chain: MAISAEFALCLNSPVLPQPQIWLCPTDRPLIPGYQALLSSEEMARGERYQRPQDKQRFLTMRLALRILLARQLDCLPQQLQFTYGPQGKPELVDRERRSPWFNVAHSGNYGLIGLSTEGEIGVDLQIMLPKPHYLKLAKRFFAPQEVQQLESLEGEKRTKLFYQLWTAKEAFLKATGKGISGGLNQVIPDENLAKYQYLPDSGDTNHWRLSSQPLLADQGSNDNYWMAIAWCTNEVNQVESNYLPNIQPFQWPRNLHSLPSFRYLGKGEFQHTGGRY
notes: carrier-protein substrate truncated SACP3
- Km [3]: 169.17 ± 37.48 µM
- kcat [3]: 0.473 s⁻¹
- kcat/Km [3]: 2800 M⁻¹ s⁻¹

B2: Sppt: Synechocystis sp. PCC6803 phosphopantetheinyl transferase (slr0495, Swissprot Q55185) (protein)
chain: MLPQPQIWLCPTDRPLIPGYQALLSSEEMARGERYQRPQDKQRFLTMRLALRILLARQLDCLPQQLQFTYGPQGKPELVDRERRSPWFNVAHSGNYGLIGLSTEGEIGVDLQIMLPKPHYLKLAKRFFAPQEVQQLESLEGEKRTKLFYQLWTAKEAFLKATGKGISGGLNQVIPDENLAKYQYLPDSGDTNHWRLSSQPLLADQGSNDNYWMAIAWCTNEVNQVESNYLPNIQPFQWPRNLDSLP
- phosphopantetheinylation of NpACP (NpACP): not reproducibly detected
- phosphopantetheinylation of NpArCP (NpArCP): unable to phosphopantetheinylate
- phosphopantetheinylation of MPCP (MPCP): small mass peak corresponding to the addition of a 340 Da phosphopantetheinyl moiety
- TycPCP phosphopantetheinylated (% holo-CP) (TycPCP): approximately 54%
